Positions count from the first letter of the chain named. Numbers in names are those of the source.
B1: CASQ1 S248E (amino acids 35-396) (natural protein, human, UniProt P31415 35-396, looked up)
chain: QEGLDFPEYDGVDRVINVNAKNYKNVFKKYEVLALLYHEPPEDDKASQRQFEMEELILELAAQVLEDKGVGFGLVDSEKDAAVAKKLGLTEVDSMYVFKGDEVIEYDGEFSADTIVEFLLDVLEDPVELIEGERELQAFENIEDEIKLIGYFKSKDSEHYKAFEDAAEEFHPYIPFFATFDSKVAKKLTLKLNEIDFYEAFMEEPVTIPDKPNEEEEIVNFVEEHRRSTLRKLKPESMYETWEDDMDGIHIVAFAEEADPDGFEFLETLKAVAQDNTENPDLSIIWIDPDDFPLLVPYWEKTFDIDLSAPQIGVVNVTDADSVWMEMDDEEDLPSAEELEDWLEDVLEGEINTEDDDDDDDD
B2: CASQ1 S369E (amino acids 35-396) (natural protein, human, UniProt P31415 35-396, looked up)
chain: B1 chain with E214S, S335E
B3: CASQ1 S248/369E (amino acids 35-396) (natural protein, human, UniProt P31415 35-396, looked up)
chain: B1 chain with S335E

How the values were obtained:
crystal structure = molecular target: the molecule itself; assay: crystal structure
turbidity assay = molecular target: the molecule itself; assay: turbidity assay

Protein	stoichiometry N (crystal structure)	binding result (turbidity assay)
B1	2	
B2		binds
B3		binds
